From PMC6007489 (Nucleic Acids Research, 2018)

T1: His–Rad1–Rad10 (S. cerevisiae, UniProt P06777 1-1100; P06838 1-210)
T1 sequence (looked up) 1: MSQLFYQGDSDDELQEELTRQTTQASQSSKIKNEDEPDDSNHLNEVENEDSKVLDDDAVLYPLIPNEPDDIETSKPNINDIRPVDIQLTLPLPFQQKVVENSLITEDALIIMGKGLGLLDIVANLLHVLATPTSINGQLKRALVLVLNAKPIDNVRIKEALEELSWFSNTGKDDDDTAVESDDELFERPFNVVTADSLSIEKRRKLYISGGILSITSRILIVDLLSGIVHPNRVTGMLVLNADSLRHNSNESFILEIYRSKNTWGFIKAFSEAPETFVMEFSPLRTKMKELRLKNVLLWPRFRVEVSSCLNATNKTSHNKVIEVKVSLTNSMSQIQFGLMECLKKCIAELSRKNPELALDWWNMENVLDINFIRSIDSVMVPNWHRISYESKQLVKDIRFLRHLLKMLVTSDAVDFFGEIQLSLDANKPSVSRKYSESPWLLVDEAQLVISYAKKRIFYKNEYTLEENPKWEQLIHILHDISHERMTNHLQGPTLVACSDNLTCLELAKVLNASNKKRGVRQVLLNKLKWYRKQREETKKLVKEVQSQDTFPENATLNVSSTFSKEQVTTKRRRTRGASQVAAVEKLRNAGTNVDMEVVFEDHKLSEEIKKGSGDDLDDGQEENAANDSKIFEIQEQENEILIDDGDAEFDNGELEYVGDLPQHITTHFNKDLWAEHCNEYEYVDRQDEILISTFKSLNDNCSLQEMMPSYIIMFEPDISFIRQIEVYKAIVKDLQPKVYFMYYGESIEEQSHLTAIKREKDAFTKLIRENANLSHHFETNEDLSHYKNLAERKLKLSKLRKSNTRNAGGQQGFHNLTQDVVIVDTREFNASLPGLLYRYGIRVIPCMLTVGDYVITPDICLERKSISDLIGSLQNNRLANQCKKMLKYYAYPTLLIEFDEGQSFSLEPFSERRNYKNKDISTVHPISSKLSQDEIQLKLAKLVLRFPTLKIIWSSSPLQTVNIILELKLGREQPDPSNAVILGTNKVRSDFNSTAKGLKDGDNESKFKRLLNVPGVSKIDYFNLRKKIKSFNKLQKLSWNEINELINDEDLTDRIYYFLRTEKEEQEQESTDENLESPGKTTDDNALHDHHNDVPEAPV
T1 sequence (looked up) 2: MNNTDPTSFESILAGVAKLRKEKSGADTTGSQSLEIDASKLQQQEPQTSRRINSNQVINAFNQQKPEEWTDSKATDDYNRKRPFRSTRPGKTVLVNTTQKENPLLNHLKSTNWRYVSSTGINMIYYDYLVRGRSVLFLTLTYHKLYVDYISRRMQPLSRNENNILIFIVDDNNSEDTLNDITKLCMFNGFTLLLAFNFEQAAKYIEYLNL

B1: 6xHis–Saw1 (natural protein, S. cerevisiae, UniProt P39735 1-261, looked up)
chain: MAPSIATVKIARDMVLPLRIFVNRKQILQTNDKTSNKSNATIFEAPLLSNNSIICLKSPNTRIYLSQQDKKNLCDEIKEDLLLIVYELASPEIISSVLSKIRVGHSTDFQINVLPKLFAGADTDNAVTSHIQSVTRLAKFKYKLHYKHKWELDIFINSIKKIANLRHYLMFQTLTLNGFSLNAGPKTLLARKIEKQPQVPNLLIENGDADALDTPVEEDIKPVIEFMYKPVINLGEIIDVHVLHRPRRHKVRTQSKQPQEE

Assays:
6xHis–Saw1 = biological target: B1; assay: co-IP
Msh2–Msh3 [1] = biological target: T2, Msh2–Msh3 (S. cerevisiae, UniProt P25847 1-964; P25336 1-1018); assay: far-Western, overlay or dot blot
His–Rad1–Rad10 = biological target: T1, His–Rad1–Rad10; assay: co-IP
Msh2–Msh3 [2] = biological target: T2, Msh2–Msh3; assay: co-IP

T2 sequence (P25847 whole entry, chain 1 of 2): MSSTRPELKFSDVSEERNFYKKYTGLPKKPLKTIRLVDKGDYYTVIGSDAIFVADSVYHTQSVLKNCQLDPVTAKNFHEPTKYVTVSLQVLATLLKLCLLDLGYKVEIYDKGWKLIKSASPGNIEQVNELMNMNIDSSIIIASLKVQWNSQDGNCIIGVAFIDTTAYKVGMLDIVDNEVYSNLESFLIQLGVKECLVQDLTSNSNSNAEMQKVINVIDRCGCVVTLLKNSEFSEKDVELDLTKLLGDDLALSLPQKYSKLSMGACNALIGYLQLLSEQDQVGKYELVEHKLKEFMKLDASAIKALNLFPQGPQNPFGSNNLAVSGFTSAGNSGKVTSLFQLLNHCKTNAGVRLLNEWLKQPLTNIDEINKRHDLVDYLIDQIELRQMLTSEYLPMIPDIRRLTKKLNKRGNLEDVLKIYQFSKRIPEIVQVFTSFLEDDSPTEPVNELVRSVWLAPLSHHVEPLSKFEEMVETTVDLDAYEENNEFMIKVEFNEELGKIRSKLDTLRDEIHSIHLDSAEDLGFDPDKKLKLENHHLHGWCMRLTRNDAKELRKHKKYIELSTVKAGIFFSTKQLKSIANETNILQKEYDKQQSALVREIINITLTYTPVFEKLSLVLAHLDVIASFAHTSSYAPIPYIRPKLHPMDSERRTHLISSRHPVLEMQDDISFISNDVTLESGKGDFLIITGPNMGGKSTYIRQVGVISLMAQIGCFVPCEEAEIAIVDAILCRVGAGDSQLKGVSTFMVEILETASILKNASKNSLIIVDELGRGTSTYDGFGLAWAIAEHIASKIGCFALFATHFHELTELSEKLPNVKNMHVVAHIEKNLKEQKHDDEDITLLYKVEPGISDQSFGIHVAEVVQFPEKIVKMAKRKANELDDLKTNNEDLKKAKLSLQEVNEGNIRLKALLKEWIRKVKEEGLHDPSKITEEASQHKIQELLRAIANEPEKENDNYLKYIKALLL
T2 sequence (P25336 whole entry, chain 2 of 2): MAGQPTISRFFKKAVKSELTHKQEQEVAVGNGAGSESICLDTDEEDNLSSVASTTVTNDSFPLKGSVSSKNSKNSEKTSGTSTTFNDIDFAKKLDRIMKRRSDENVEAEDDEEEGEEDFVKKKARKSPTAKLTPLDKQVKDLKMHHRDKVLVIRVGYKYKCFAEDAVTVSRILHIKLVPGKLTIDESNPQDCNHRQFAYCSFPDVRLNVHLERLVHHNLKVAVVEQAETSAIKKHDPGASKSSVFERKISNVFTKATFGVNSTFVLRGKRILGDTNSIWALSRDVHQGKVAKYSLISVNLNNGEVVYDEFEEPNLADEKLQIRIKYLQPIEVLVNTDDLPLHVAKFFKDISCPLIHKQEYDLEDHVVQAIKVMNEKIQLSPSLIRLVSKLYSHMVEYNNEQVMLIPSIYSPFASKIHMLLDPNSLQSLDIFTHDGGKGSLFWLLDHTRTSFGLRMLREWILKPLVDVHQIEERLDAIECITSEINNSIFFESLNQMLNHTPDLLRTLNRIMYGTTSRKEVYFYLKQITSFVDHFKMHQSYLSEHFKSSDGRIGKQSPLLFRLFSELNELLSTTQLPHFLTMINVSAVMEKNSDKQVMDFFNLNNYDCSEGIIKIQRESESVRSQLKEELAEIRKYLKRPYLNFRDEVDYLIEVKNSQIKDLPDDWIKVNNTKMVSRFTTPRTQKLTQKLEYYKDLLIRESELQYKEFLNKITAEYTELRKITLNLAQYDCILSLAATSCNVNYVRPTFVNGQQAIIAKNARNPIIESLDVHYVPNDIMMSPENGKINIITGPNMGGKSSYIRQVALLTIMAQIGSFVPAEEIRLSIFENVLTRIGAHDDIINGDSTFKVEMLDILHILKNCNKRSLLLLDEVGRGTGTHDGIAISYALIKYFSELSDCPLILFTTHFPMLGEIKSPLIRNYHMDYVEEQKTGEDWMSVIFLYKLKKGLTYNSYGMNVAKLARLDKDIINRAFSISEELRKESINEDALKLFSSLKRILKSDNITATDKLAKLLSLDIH

fold immunoprecipitated relative to His–Rad1–Rad10 (6xHis–Saw1)	binding result (Msh2–Msh3 [1])	binding result (His–Rad1–Rad10)	binding result (Msh2–Msh3 [2])	Binder
~3 fold	binds	–	–	His–rad1R218A–Rad10 (complex, S. cerevisiae) chain 1: MSQLFYQGDSDDELQEELTRQTTQASQSSKIKNEDEPDDSNHLNEVENEDSKVLDDDAVLYPLIPNEPDDIETSKPNINDIRPVDIQLTLPLPFQQKVVENSLITEDALIIMGKGLGLLDIVANLLHVLATPTSINGQLKRALVLVLNAKPIDNVRIKEALEELSWFSNTGKDDDDTAVESDDELFERPFNVVTADSLSIEKRRKLYISGGILSITSAILIVDLLSGIVHPNRVTGMLVLNADSLRHNSNESFILEIYRSKNTWGFIKAFSEAPETFVMEFSPLRTKMKELRLKNVLLWPRFRVEVSSCLNATNKTSHNKVIEVKVSLTNSMSQIQFGLMECLKKCIAELSRKNPELALDWWNMENVLDINFIRSIDSVMVPNWHRISYESKQLVKDIRFLRHLLKMLVTSDAVDFFGEIQLSLDANKPSVSRKYSESPWLLVDEAQLVISYAKKRIFYKNEYTLEENPKWEQLIHILHDISHERMTNHLQGPTLVACSDNLTCLELAKVLNASNKKRGVRQVLLNKLKWYRKQREETKKLVKEVQSQDTFPENATLNVSSTFSKEQVTTKRRRTRGASQVAAVEKLRNAGTNVDMEVVFEDHKLSEEIKKGSGDDLDDGQEENAANDSKIFEIQEQENEILIDDGDAEFDNGELEYVGDLPQHITTHFNKDLWAEHCNEYEYVDRQDEILISTFKSLNDNCSLQEMMPSYIIMFEPDISFIRQIEVYKAIVKDLQPKVYFMYYGESIEEQSHLTAIKREKDAFTKLIRENANLSHHFETNEDLSHYKNLAERKLKLSKLRKSNTRNAGGQQGFHNLTQDVVIVDTREFNASLPGLLYRYGIRVIPCMLTVGDYVITPDICLERKSISDLIGSLQNNRLANQCKKMLKYYAYPTLLIEFDEGQSFSLEPFSERRNYKNKDISTVHPISSKLSQDEIQLKLAKLVLRFPTLKIIWSSSPLQTVNIILELKLGREQPDPSNAVILGTNKVRSDFNSTAKGLKDGDNESKFKRLLNVPGVSKIDYFNLRKKIKSFNKLQKLSWNEINELINDEDLTDRIYYFLRTEKEEQEQESTDENLESPGKTTDDNALHDHHNDVPEAPV chain 2: MNNTDPTSFESILAGVAKLRKEKSGADTTGSQSLEIDASKLQQQEPQTSRRINSNQVINAFNQQKPEEWTDSKATDDYNRKRPFRSTRPGKTVLVNTTQKENPLLNHLKSTNWRYVSSTGINMIYYDYLVRGRSVLFLTLTYHKLYVDYISRRMQPLSRNENNILIFIVDDNNSEDTLNDITKLCMFNGFTLLLAFNFEQAAKYIEYLNL
–	–	binds	binds	B1
